Laboratory results reported in paper PMC9758440.

Target: N-terminal SNAP-tagged FGFR1c on the surface of stable COS7 cells (human) (UniProt P11362)
Assay: FRET or BRET

Substance: N-terminal SNAP-tagged FGFR1c on the surface of stable COS7 cells (from UniProt P11362 22-822) (receptor)
- fold increase of the TR-FRET signal with FGF2: 2.8 fold
